What was measured:
[1] = molecular target: T1, mouse CTLA-4 on transfected HEK-293 cells (mouse, UniProt P09793 36-223); assay: flow cytometry, biotinylated Skint8-Ig and streptavidin-PE on transfected HEK-293 cells
T1 construct: whole, on cells
Description: (§1) FIG. 15. The expression pattern of the Skint8 putative receptor. (A, B) Spleen cells were harvested from C57BL/6 mice. To obtain activated T cells, the spleen cells were incubated with anti-CD3 (1 μg/ml) and anti-CD28 (0.5 μg/ml) antibodies for 3 days. To obtain activated B cells, monocytes and DCs, the spleen cells were incubated with LPS (10 μg/ml) for 3 days. The freshly harvested and activated immune cells were stained with biotinylated Skint8-Ig or control Ig, followed by streptavidin-PE, as well as anti-CD4, CD8, B220, CD11b, or CD11c antibodies to identify the immune cells. (A) Representative flow cytometric profiles and (B) Statistical analysis showing the binding of Skint8-Ig or control Ig to freshly harvested and activated immune cells. (B) Data are presented as relative fluorescence intensity (RFI) for cell binding of Skint8-Ig versus control Ig. (C) HEK-293 cells were transfected with an expression vector containing the murine PD-, CD28, BTLA, CTLA-4, or ICOS gene and screened for cells stably expressing each gene. The transfected cells were stained with antibody against the respective PD-1, CD28, BTLA, CTLA-4, or ICOS protein (open histograms) or isotype antibody (shaded histograms). Representative flow cytometric profiles showing the expression of each receptor. (D) PD-, CD28, BTLA, CTLA-4, or ICOS gene-transfected HEK-293 cells were stained with biotinylated Skint8-Ig or control Ig, followed by streptavidin-PE. Representative flow cytometric profiles showing the binding of Skint8-Ig (open histograms) or control Ig protein (shaded histograms) to the transfected cells. The data are representative of 3 independent experiments.
(§2) Single cell suspensions of organs were stained with the fluorochrome-conjugated antibodies protein as described (38-41). Direct or indirect staining of fluorochrome-conjugated antibodies included: CD4, CD8, B220, CD11c, CD11b, F4/80, CD69, CD44, CD62L, IFNγ, TNFα, IL-2, IL-10, CD28, CTLA-4, PD-1, BTLA, and ICOS (BioLegend, or BD Biosciences, San Jose, Calif., San Diego, Calif.). Skint8-g, Skint8 IgV-Ig or Skint8 IgC-Ig proteins were biotinylated with sulfo-NHS-LC-Biotin (Pierce) and detected by streptavidin-PE. The samples were analyzed on a FACSCalibur or LSRFortessa X-20 Cell Analyzer (BD Biosciences). Data analysis was done using FlowJo software (Ashland, Oreg.).

[2] = molecular target: T2, mouse BTLA on transfected HEK-293 cells (mouse, UniProt Q7TSA3 30-306); assay: as above
T2 construct: whole, on cells
T2 sequence (looked up): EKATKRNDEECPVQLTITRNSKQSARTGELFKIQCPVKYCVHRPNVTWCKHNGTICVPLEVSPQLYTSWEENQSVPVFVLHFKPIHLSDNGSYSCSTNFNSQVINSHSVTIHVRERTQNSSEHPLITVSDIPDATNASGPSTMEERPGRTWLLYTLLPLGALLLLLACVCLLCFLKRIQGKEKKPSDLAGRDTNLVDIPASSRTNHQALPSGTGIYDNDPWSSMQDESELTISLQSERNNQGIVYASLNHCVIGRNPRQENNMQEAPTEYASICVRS
Description: as §1, §2

[3] = molecular target: T3, mouse PD-1 on transfected HEK-293 cells (mouse, UniProt Q02242 25-288); assay: as above
T3 construct: whole, on cells
T3 sequence (looked up): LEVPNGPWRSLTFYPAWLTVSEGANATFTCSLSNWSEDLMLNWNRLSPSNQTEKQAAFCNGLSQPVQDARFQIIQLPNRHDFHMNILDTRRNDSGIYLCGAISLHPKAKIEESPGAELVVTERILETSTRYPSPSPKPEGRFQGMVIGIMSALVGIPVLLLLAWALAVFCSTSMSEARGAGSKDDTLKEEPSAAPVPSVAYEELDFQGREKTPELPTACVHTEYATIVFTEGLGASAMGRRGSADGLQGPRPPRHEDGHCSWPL
Description: as §1, §2

[4] = molecular target: T4, mouse ICOS on transfected HEK-293 cells (mouse, UniProt Q9WVS0 21-200); assay: as above
T4 construct: whole, on cells
T4 sequence (looked up): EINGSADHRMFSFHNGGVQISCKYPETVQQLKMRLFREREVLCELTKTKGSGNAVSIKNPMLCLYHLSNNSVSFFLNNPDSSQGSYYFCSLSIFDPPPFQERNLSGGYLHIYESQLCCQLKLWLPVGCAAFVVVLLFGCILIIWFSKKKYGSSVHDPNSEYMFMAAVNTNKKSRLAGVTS
Description: as §1, §2

[5] = molecular target: T5, mouse CD28 on transfected HEK-293 cells (mouse, UniProt P31041 20-218); assay: as above
T5 construct: whole, on cells
T5 sequence (looked up): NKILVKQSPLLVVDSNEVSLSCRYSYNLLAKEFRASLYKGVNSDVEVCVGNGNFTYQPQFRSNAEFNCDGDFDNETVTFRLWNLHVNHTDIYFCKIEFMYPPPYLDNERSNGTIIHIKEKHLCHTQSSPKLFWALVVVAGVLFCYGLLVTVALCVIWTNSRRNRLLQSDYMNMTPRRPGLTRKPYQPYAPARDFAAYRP
Description: as §1, §2

[6] = molecular target: T6, Control Ig (recombinant mouse IgG2a Fc protein) (mouse, UniProt P01863 98-330 = IgG part, limits assumed); assay: ELISA screen of hybridomas
T6 construct: domain: Fc; Bought control protein; also called control mouse IgG2a Fc; control Ig protein

[7] = molecular target: T1, mouse CTLA-4 on transfected HEK-293 …; assay: flow cytometry, biotinylated mBTN5-Ig and streptavidin-PE on transfected HEK-293 cells
Description: (§3) FIG. 20. The expression pattern of the mBTN5 putative receptor. (A) Splenocytes from C57BL/6 mice were freshly harvested and analyzed for resting immune cells. For T cell activation, splenocytes were incubated with anti-CD3 (1 μg/ml) and anti-CD28 (0.5 μg/ml) antibodies for 3 days. For the activation of B cells, DCs and monocytes, splenocytes were incubated with LPS (10 μg/ml) for 3 days. The resting and active immune cells were stained with anti-CD4, CD8, B220, CD11c, or CD11b antibodies, and biotinylated mBTN5-Ig or control Ig, followed by streptavidin-PE. Representative flow cytometric profiles showing the binding of mBTN5-Ig or control Ig to resting and activated immune cells. (B, C) HEK-293 cells were transfected with an expression vector containing murine PD-1, CD28, BTLA, CTLA-4, or ICOS gene. The transfected cells were stained with (B) antibodies against the respective PD-1, CD28, BTLA, CTLA-4, or ICOS protein, (C) biotinylated mBTN5-Ig or control Ig, followed by streptavidin-PE. Representative flow cytometric profiles showing the binding of (B) the antibodies or (C) mBTN5-Ig to the transfected cells. Representative of 3 independent experiments.

[8] = molecular target: T2, mouse BTLA on transfected HEK-293 cells; assay: as above
Description: as §3

[9] = molecular target: T3, mouse PD-1 on transfected HEK-293 cells; assay: as above
Description: as §3

[10] = molecular target: T4, mouse ICOS on transfected HEK-293 cells; assay: as above
Description: as §3

[11] = molecular target: T5, mouse CD28 on transfected HEK-293 cells; assay: as above
Description: as §3

[12] = molecular target: T1, mouse CTLA-4 on transfected HEK-293 …; assay: flow cytometry, biotinylated mCD300c2-Ig on transfected HEK-293 cells
Description: (§4) To determine whether mCD300c binds to molecules previously identified as receptors of the known B7 family members, HEK-293 cells were transfected with an expression vector containing the mouse CD28. CTLA4, PD-1, BTLA or ICOS gene. The expression of these receptors on the transfected 293 cells was confirmed by flow cytometric analysis with the antibodies against the respective receptors (FIG. 5C). The binding of mCD300c to the transfected HEK-293 cells was then analyzed.

[13] = molecular target: T2, mouse BTLA on transfected HEK-293 cells; assay: as above
Description: as §4

[14] = molecular target: T3, mouse PD-1 on transfected HEK-293 cells; assay: as above
Description: as §4

[15] = molecular target: T4, mouse ICOS on transfected HEK-293 cells; assay: as above
Description: as §4

[16] = molecular target: T5, mouse CD28 on transfected HEK-293 cells; assay: as above
Description: as §4

[17] = molecular target: T7, Human CD300c-Ig fusion protein (human); assay: ELISA screen of hybridomas
T7 construct: also called hCD300c-Ig; hCD300-Ig
T7 chain: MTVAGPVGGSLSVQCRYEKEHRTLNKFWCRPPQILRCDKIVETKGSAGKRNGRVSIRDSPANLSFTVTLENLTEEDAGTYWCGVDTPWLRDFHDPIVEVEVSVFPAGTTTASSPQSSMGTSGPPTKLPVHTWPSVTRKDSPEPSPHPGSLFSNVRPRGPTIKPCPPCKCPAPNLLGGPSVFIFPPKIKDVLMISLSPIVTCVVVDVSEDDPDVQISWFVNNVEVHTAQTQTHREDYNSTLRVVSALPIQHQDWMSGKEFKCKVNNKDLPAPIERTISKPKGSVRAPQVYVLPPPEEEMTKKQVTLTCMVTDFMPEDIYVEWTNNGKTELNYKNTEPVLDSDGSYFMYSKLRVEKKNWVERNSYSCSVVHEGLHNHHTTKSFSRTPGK

Measured: binding result

B1: Mouse Skint8-Ig fusion protein (Fc fusion)
chain: EKLRVTTPTRHLLARVGGQAELSCQVIPPHSVMHMEVRWFRSGHSQPVYLYRGGHKMSEEAAPEYANRTEFVKEAIGEGKVSLRIYNINILDDGPYQCSFNDSGFIDVAIMNLNVTAVGLETEIHVQAPDADGVMVECNTGGWFPRPQMEWRDSKGATLPHSLKSYSQDEARFFHMKMTLLLTNMSHGSIICCISNPVTGEEKQTSIIPRGPTIKPCPPCKCPAPNLLGGPSVFIFPPKIKDVLMISLSPIVTCVVVDVSEDDPDVQISWFVNNVEVHTAQTQTHREDYNSTLRVVSALPIQHQDWMSGKEFKCKVNNKDLPAPIERTISKPKGSVRAPQVYVLPPPEEEMTKKQVTLTCMVTDFMPEDIYVEWTNNGKTELNYKNTEPVLDSDGSYFMYSKLRVEKKNWVERNSYSCSVVHEGLHNHHTTKSFSRTPGK
modifications: biotinylated with sulfo-NHS-LC-Biotin in the flow cytometry assays (sites not given)
notes: Made in HEK-293 cells; also called Skint8-IgG Fc
no binding: [1] | [2] | [3] | [4] | [5]

B2: anti-hTAPBPL mAb (clone 54) (antibody, V domains shown)
VH: DVQLQESGPGLVKPSQTLSLTCSVTGYSLTSGYFWHWIRQFPGNKLEWMGYISYSGTTNYNPSLKNRISITHDSSKNQFFLNLNSVTAEDTATYFCAGDDWDWFAYWGQGTLVTVSA
VL: ENVLTQSPAIMSASPGEKVTMTCSASSSVNYMHWYQQKSSTSPKLWIYDTSKLASGVPGRFSGSGSGNSYSLTISSMEAEDVATYYCFQGSGYPLTFGSGTKLEIK
notes: Mouse hybridoma mAb; also called anti-TAPBPL mAb
no binding: [6]

B3: mBTN5-Ig fusion protein (Fc fusion)
chain: QPPVQVLGDAGKVYIAPLRDTANLPCPLFLWPNMVLSEMRWYRPGHLPRTQAVHVFRDGQDRDEDLMPEYKGRTALVRDAHKESYILQISNVRLEDRGLYQCQVWVGNS
modifications: biotinylated with sulfo-NHS-LC-Biotin (sites not given)
notes: Made in HEK-293 cells; not shown: constant region of mouse IgG2a from the pCMV6-AC-FC-S expression vector (ORIGENE)
no binding: [7] | [8] | [9] | [10] | [11]

B4: mCD300c2-Ig fusion protein (Fc fusion)
chain: CVPLHGPSTITGTVGKSLSVSCQYEEKFKTKDKFWCRGSLKVLCKDIVKTSSSEEVRNGRVTIRDHPDNLTFTVTYESLTLEDADTYMCAVDISLFDGSLGFDKYFKIELSVVPSEDPVTGSSLESGRDILESPTSSVGHTHPSVTTDDTIPTPCPQPRSLRSSLYFRVLVS
modifications: biotinylated with sulfo-NHS-LC-Biotin for flow cytometry (sites not given)
notes: Made in HEK293F cells; also called mCD300c-Ig; not shown: constant region of mouse IgG2a from the pCMV6-AC-FC-S expression vector (ORIGENE)
no binding: [12] | [13] | [14] | [15] | [16]

B5: anti-hCD300c mAb (clone B47-1D2) (antibody, V domains shown)
VH: QIQLVQSGPELRKPGETVKISCKASGYTFTIYGMNWMKQAPGKGLKWMGWINTYTGEPTYADDFKGRFAFSLETSASTAFLQINNLTNEDTATYFCARSRFAYWGQGTLVTVSA
VL: DIVMTQSQKFMSTSVGDRVSVTCKASQNVGTNVAWYQQKPGQSPKALIYSASYRYSGVPDRFTGSRSGTDFTLTISNVQSEDLAEYVCQQYNSYPLTFGAGTKLELK
notes: Mouse hybridoma mAb; also called anti-CD300c mAb
binds: [17]
no binding: [6]
